Experimental data as given in patent US20170002346A1.

Target: V5 epitope tagged Sag1p fragment fusion displayed on the cell surface of Pichia pastoris (vectors without insert, s1-V5-SAG1 constructs) (S. cerevisiae) (UniProt P20840)
Assay: flow cytometry, FITC anti-V5 staining of plate-grown SuperMan5 cells with GAP and UP promoter constructs (5 isolates each)

Chain of UniProt P20840 (P20840 331-650): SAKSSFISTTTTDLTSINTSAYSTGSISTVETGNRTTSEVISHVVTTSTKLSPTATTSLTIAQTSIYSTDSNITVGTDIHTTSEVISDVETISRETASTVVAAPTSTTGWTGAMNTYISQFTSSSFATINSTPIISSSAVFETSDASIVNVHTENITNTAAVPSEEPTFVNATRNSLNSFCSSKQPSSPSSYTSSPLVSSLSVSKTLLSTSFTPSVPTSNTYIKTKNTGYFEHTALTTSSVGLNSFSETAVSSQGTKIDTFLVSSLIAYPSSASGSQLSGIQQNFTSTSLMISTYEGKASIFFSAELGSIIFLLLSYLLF

FITC signal against unlabeled cells (orders of magnitude): 2
Substance: FITC-labeled anti-V5 (Abcam, V5-tag-antibody-FITC-ab1209)
